The values below are quoted from earlier work in paper PMC8777194.

The data set concerns the target Leader protein L L (Encephalomyocarditis virus) (UniProt P03304).

One may read the Kd as a measure of binding affinity in units of concentration. For 2A protein 2A (from UniProt P03304), the Kd is 1500 nM.
